The values below come from US20120178908A1 (Novo Nordisk, published 2012).

Test [1] deals with T1, TLT-1 receptor on the surface of activated human platelets (human) (UniProt Q86YW5).
T1 sequence: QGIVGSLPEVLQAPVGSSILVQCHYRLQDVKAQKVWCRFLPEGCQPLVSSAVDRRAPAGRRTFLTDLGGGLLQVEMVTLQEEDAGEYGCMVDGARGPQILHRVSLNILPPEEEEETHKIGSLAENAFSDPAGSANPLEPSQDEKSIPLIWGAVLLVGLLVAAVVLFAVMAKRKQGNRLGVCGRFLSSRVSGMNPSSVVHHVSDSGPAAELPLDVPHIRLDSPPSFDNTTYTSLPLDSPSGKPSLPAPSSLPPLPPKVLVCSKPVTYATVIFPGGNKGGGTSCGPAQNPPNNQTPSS

The target of test [2] is T2, TLT-1 18-188 relipidated in 20:80 PS:PC vesicles (human) (UniProt Q86YW5).
T2 sequence: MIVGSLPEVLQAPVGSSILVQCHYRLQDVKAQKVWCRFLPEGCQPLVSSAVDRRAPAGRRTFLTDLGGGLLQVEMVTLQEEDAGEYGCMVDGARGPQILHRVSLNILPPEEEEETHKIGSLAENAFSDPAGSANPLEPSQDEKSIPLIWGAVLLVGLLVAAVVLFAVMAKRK

The target of test [3] is T3, TLT-1 18-188 relipidated in 20:80 PS:PC vesicles (human, UniProt Q86YW5 18-188).
T3 sequence: T2 sequence
In words: cell-based or functional assay.

Test [4] concerns the target T4, TLT-1 receptor on the surface of activated human platelets (human, UniProt Q86YW5 16-311).
T4 sequence: T1 sequence
Kind of test: cell-based or functional assay.

B1: Fab 0012-VH-CH1-L0-TF;LC-HPC4 (protein)
VH-CH1-TF, no linker: EVKLLESGGGLVQPGGSLKLSCAASGFDFSRYWMTWVRQAPGKGLEWIGEINPDSSTINYTPSLKDKFIISRDNAKNTLYLQMSEVRSEDTALYYCASGVFTSWGQGTLVTVSAASTKGPSVFPLAPCSRSTSESTAALGCLVKDYFPEPVTVSWNSGALTSGVHTFPAVLQSSGLYSLSSVVTVPSSSLGTKTYTCNVDHKPSNTKVDKRVESKSGTTNTVAAYNLTWKSTNFKTILEWEPKPVNQVYTVQISTKSGDWKSKCFYTTDTECDLTDEIVKDVKQTYLARVFSYPAGNVESTGSAGEPLYENSPEFTPYLETNLGQPTIQSFEQVGTKVNVTVEDERTLVRRNNTFLSLRDVFGKDLIYTLYYWKSSSSGKKTAKTNTNEFLIDVDKGENYCFSVQAVIPSRTVNRKSTDSPVECMGQEKGEFRE
light chain-HPC4: DVVMTQTPLSLPVSLGDQASISCRSSQSLVHRNGNTYFHWCLQKPGQSPKLLIYKVSNRFSGVPDRFSGSGSGTDFTLKISRVEAEDLGVYFCSQSTHVPYTFGGGTKLEIKRTVAAPSVFIFPPSDEQLKSGTASVVCLLNNFYPREAKVQWKVDNALQSGNSQESVTEQDSKDSTYSLSSTLTLSKADYEKHKVYACEVTHQGLSSPVTKSFNRGECEDQVDPRLIDGK
B1: in test [1], the FVII-mediated FXa generation % Activity activated plts (n 4) was determined as 71% and the FVIIa-mediated FXa generation % Activity activated plts (n 4) came to 80%. In test [2], this molecule gave an FVII-mediated FXa generation % Activity lipidated TLT-1 of 98% and an FVIIa-mediated FXa generation % Activity lipidated TLT-1 of 106%.

B2: Fab 0012-VH-CH1-L10-TF;LC-HPC4 (protein)
VH-CH1-linker-TF: EVKLLESGGGLVQPGGSLKLSCAASGFDFSRYWMTWVRQAPGKGLEWIGEINPDSSTINYTPSLKDKFIISRDNAKNTLYLQMSEVRSEDTALYYCASGVFTSWGQGTLVTVSAASTKGPSVFPLAPCSRSTSESTAALGCLVKDYFPEPVTVSWNSGALTSGVHTFPAVLQSSGLYSLSSVVTVPSSSLGTKTYTCNVDHKPSNTKVDKRVESKYGPPSPSSPAPEFLGGSGTTNTVAAYNLTWKSTNFKTILEWEPKPVNQVYTVQISTKSGDWKSKCFYTTDTECDLTDEIVKDVKQTYLARVFSYPAGNVESTGSAGEPLYENSPEFTPYLETNLGQPTIQSFEQVGTKVNVTVEDERTLVRRNNTFLSLRDVFGKDLIYTLYYWKSSSSGKKTAKTNTNEFLIDVDKGENYCFSVQAVIPSRTVNRKSTDSPVECMGQEKGEFRE
light chain-HPC4: B1 light chain-HPC4
In test [1], B2 displayed an FVII-mediated FXa generation % Activity activated plts (n 2) of 78% and an FVIIa-mediated FXa generation % Activity activated plts (n 2) of 81%. Further, in test [2], the FVII-mediated FXa generation % Activity lipidated TLT-1 amounted to 87% and the FVIIa-mediated FXa generation % Activity lipidated TLT-1 amounted to 93%.

B3: Fab 0012-TF-L4b-VH-CH1;LC-HPC4 (protein)
TF-linker-VH-CH1: SGTTNTVAAYNLTWKSTNFKTILEWEPKPVNQVYTVQISTKSGDWKSKCFYTTDTECDLTDEIVKDVKQTYLARVFSYPAGNVESTGSAGEPLYENSPEFTPYLETNLGQPTIQSFEQVGTKVNVTVEDERTLVRRNNTFLSLRDVFGKDLIYTLYYWKSSSSGKKTAKTNTNEFLIDVDKGENYCFSVQAVIPSRTVNRKSTDSPVECMGQEKGEFREGGGGSGGGGSGGGGSGSEVKLLESGGGLVQPGGSLKLSCAASGFDFSRYWMTWVRQAPGKGLEWIGEINPDSSTINYTPSLKDKFIISRDNAKNTLYLQMSEVRSEDTALYYCASGVFTSWGQGTLVTVSAASTKGPSVFPLAPCSRSTSESTAALGCLVKDYFPEPVTVSWNSGALTSGVHTFPAVLQSSGLYSLSSVVTVPSSSLGTKTYTCNVDHKPSNTKVDKRVESK
light chain-HPC4: B1 light chain-HPC4
In test [1], B3 gave an FVII-mediated FXa generation % Activity activated plts (n 1) of 5% and an FVIIa-mediated FXa generation % Activity activated plts (n 2) of 5%. Besides, in test [2], the FVII-mediated FXa generation % Activity lipidated TLT-1 was 0% and the FVIIa-mediated FXa generation % Activity lipidated TLT-1 is 0%.

B4: hTF.1-219 (soluble tissue factor) (receptor)
chain: SGTTNTVAAYNLTWKSTNFKTILEWEPKPVNQVYTVQISTKSGDWKSKCFYTTDTECDLTDEIVKDVKQTYLARVFSYPAGNVESTGSAGEPLYENSPEFTPYLETNLGQPTIQSFEQVGTKVNVTVEDERTLVRRNNTFLSLRDVFGKDLIYTLYYWKSSSSGKKTAKTNTNEFLIDVDKGENYCFSVQAVIPSRTVNRKSTDSPVECMGQEKGEFRE
B4: in test [3], the “FVII-mediated FXa generation % Activity lipidated TLT-1” value stood at 1% and the “FVIIa-mediated FXa generation % Activity lipidated TLT-1” value came out at 13%. Besides, in test [4], the “FVII-mediated FXa generation % Activity activated plts (n 1)” value was found to be 2% and the “FVIIa-mediated FXa generation % Activity activated plts (n 1)” value was determined as 4%.

B5: Fab 0052-VH-CH1-L4a-TF;LC-HPC4 (other)
VH-CH1-linker-TF: QVQLQQSGAEPMKPGASVKISCKATGYTFSSHWIEWIKQRPGHGLEWIGEILPGSGNTNYNEKFKGKATFTADTSSNTAYMQLSSLTSEDSAVYCCARGYYGLNYDWYFDVWGAGTTVTVSSASTKGPSVFPLAPCSRSTSESTAALGCLVKDYFPEPVTVSWNSGALTSGVHTFPAVLQSSGLYSLSSVVTVPSSSLGTKTYTCNVDHKPSNTKVDKRVESKGSGGGGSGGGGSGGGGSSGTTNTVAAYNLTWKSTNFKTILEWEPKPVNQVYTVQISTKSGDWKSKCFYTTDTECDLTDEIVKDVKQTYLARVFSYPAGNVESTGSAGEPLYENSPEFTPYLETNLGQPTIQSFEQVGTKVNVTVEDERTLVRRNNTFLSLRDVFGKDLIYTLYYWKSSSSGKKTAKTNTNEFLIDVDKGENYCFSVQAVIPSRTVNRKSTDSPVECMGQEKGEFRE
light chain-HPC4: DIQMTQTTSSLSASLGDRVTISCRASQDISNYLNWYQQKPDGTVKLLIFYTSRLHSGVPSRFSGSGSGTDYSLTISNLEPEDIATYYCQQDTKLPYTFGGGTKLEMKRTVAAPSVFIFPPSDEQLKSGTASVVCLLNNFYPREAKVQWKVDNALQSGNSQESVTEQDSKDSTYSLSSTLTLSKADYEKHKVYACEVTHQGLSSPVTKSFNRGECEDQVDPRLIDGK
B5: in test [3], the “FVII-mediated FXa generation % Activity lipidated TLT-1” value came out at 13% and the “FVIIa-mediated FXa generation % Activity lipidated TLT-1” value is 29%. Further, in test [4], the “FVII-mediated FXa generation % Activity activated plts (n 1)” value was determined as 10% and the “FVIIa-mediated FXa generation % Activity activated plts (n 1)” value was 25%.

B6: Fab 0012-LC-L1-TF;VH-CH1-HPC4 (protein)
light chain-linker-TF: DVVMTQTPLSLPVSLGDQASISCRSSQSLVHRNGNTYFHWCLQKPGQSPKLLIYKVSNRFSGVPDRFSGSGSGTDFTLKISRVEAEDLGVYFCSQSTHVPYTFGGGTKLEIKRTVAAPSVFIFPPSDEQLKSGTASVVCLLNNFYPREAKVQWKVDNALQSGNSQESVTEQDSKDSTYSLSSTLTLSKADYEKHKVYACEVTHQGLSSPVTKSFNRGECGSSGTTNTVAAYNLTWKSTNFKTILEWEPKPVNQVYTVQISTKSGDWKSKCFYTTDTECDLTDEIVKDVKQTYLARVFSYPAGNVESTGSAGEPLYENSPEFTPYLETNLGQPTIQSFEQVGTKVNVTVEDERTLVRRNNTFLSLRDVFGKDLIYTLYYWKSSSSGKKTAKTNTNEFLIDVDKGENYCFSVQAVIPSRTVNRKSTDSPVECMGQEKGEFRE
VH-CH1-HPC4: EVKLLESGGGLVQPGGSLKLSCAASGFDFSRYWMTWVRQAPGKGLEWIGEINPDSSTINYTPSLKDKFIISRDNAKNTLYLQMSEVRSEDTALYYCASGVFTSWGQGTLVTVSAASTKGPSVFPLAPCSRSTSESTAALGCLVKDYFPEPVTVSWNSGALTSGVHTFPAVLQSSGLYSLSSVVTVPSSSLGTKTYTCNVDHKPSNTKVDKRVESKEDQVDPRLIDGK
In test [1], B6 displayed an FVII-mediated FXa generation % Activity activated plts (n 4) of 111% and an FVIIa-mediated FXa generation % Activity activated plts (n 1) of 125%. Moreover, in test [2], the FVII-mediated FXa generation % Activity lipidated TLT-1 amounted to 97% and the FVIIa-mediated FXa generation % Activity lipidated TLT-1 amounted to 101%.

B7: Fab 0012-LC-L3-TF;VH-CH1-HPC4 (protein)
light chain-linker-TF: DVVMTQTPLSLPVSLGDQASISCRSSQSLVHRNGNTYFHWCLQKPGQSPKLLIYKVSNRFSGVPDRFSGSGSGTDFTLKISRVEAEDLGVYFCSQSTHVPYTFGGGTKLEIKRTVAAPSVFIFPPSDEQLKSGTASVVCLLNNFYPREAKVQWKVDNALQSGNSQESVTEQDSKDSTYSLSSTLTLSKADYEKHKVYACEVTHQGLSSPVTKSFNRGECGSGGGGSGGGGSSGTTNTVAAYNLTWKSTNFKTILEWEPKPVNQVYTVQISTKSGDWKSKCFYTTDTECDLTDEIVKDVKQTYLARVFSYPAGNVESTGSAGEPLYENSPEFTPYLETNLGQPTIQSFEQVGTKVNVTVEDERTLVRRNNTFLSLRDVFGKDLIYTLYYWKSSSSGKKTAKTNTNEFLIDVDKGENYCFSVQAVIPSRTVNRKSTDSPVECMGQEKGEFRE
VH-CH1-HPC4: B6 VH-CH1-HPC4
In test [1], B7 returned an FVII-mediated FXa generation % Activity activated plts (n 1) of 98% and an FVIIa-mediated FXa generation % Activity activated plts (n 1) of 97%. In test [2], this molecule gave an FVII-mediated FXa generation % Activity lipidated TLT-1 of 98% and an FVIIa-mediated FXa generation % Activity lipidated TLT-1 of 105%.

B8: Fab 0012-LC-L2-TF;VH-CH1-HPC4 (protein)
light chain-linker-TF: DVVMTQTPLSLPVSLGDQASISCRSSQSLVHRNGNTYFHWCLQKPGQSPKLLIYKVSNRFSGVPDRFSGSGSGTDFTLKISRVEAEDLGVYFCSQSTHVPYTFGGGTKLEIKRTVAAPSVFIFPPSDEQLKSGTASVVCLLNNFYPREAKVQWKVDNALQSGNSQESVTEQDSKDSTYSLSSTLTLSKADYEKHKVYACEVTHQGLSSPVTKSFNRGECGSGGGGSSGTTNTVAAYNLTWKSTNFKTILEWEPKPVNQVYTVQISTKSGDWKSKCFYTTDTECDLTDEIVKDVKQTYLARVFSYPAGNVESTGSAGEPLYENSPEFTPYLETNLGQPTIQSFEQVGTKVNVTVEDERTLVRRNNTFLSLRDVFGKDLIYTLYYWKSSSSGKKTAKTNTNEFLIDVDKGENYCFSVQAVIPSRTVNRKSTDSPVECMGQEKGEFRE
VH-CH1-HPC4: B6 VH-CH1-HPC4
In test [1], B8 registered an FVII-mediated FXa generation % Activity activated plts (n 4) of 96% and an FVIIa-mediated FXa generation % Activity activated plts (n 1) of 112%. In test [2], this molecule displayed an FVII-mediated FXa generation % Activity lipidated TLT-1 of 96% and an FVIIa-mediated FXa generation % Activity lipidated TLT-1 of 106%.
